Assay results reported in the Human Domainome abundance scans (Beltran et al. 2025).
± gives the uncertainty stated by the source.

B1: Death-inducer obliterator 1, residues 263 to 321; numbered along this chain, Q9BTC0 (parent)
chain: GYDPNALYCICRQPHNNRFMICCDRCEEWFHGDCVGISEARGRLLERNGEDYICPNCTI
B2: Homeobox protein SIX6, residues 134 to 184; numbered along this chain, O95475 (parent)
chain: CFKERTRHLLREWYLQDPYPNPSKKRELAQATGLTPTQVGNWFKNRRQRDR

Variants of: B1
Test: abundance fitness (aPCA) (normalised: wild type 0, dead -1); higher = more abundant; growth selection in yeast, the domain comes from the species named
Settings: Homo sapiens

Variant	abundance fitness
I53C	0.063 ± 0.11
I53L	0.132 ± 0.081
I53S	0.02 ± 0.087
I53K	0.355 ± 0.12
I53Y	0.149 ± 0.21
I53H	-0.093 ± 0.13
I53G	-0.136 ± 0.064
I53R	-0.024 ± 0.097
I53M	0.269 ± 0.19
I53V	-0.028 ± 0.074
I53Q	-0.03 ± 0.15
I53A	0.059 ± 0.089
I53P	-0.419 ± 0.14
I53E	0.172 ± 0.17
I53N	0.328 ± 0.22
C57G	-1.12 ± 0.29
C57M	-0.989 ± 0.32
C57A	-1.04 ± 0.2
C57Y	-0.903 ± 0.22
C57P	-0.828 ± 0.17
C57S	-0.848 ± 0.12
C57D	-0.498 ± 0.15
C57E	-0.483 ± 0.13
C57W	-0.992 ± 0.17
C57I	-1.06 ± 0.3

Variant	abundance fitness
C57T	-0.509 ± 0.12
C57V	-0.904 ± 0.15
C57N	-0.582 ± 0.3
C57Q	-0.842 ± 0.13
C57R	-0.769 ± 0.094
C57H	-0.206 ± 0.18
C57L	-0.705 ± 0.12
T58F	-0.264 ± 0.15
T58L	0.127 ± 0.061
T58S	0.047 ± 0.061
T58M	-0.115 ± 0.12
T58P	0.014 ± 0.087
T58A	0.084 ± 0.064
T58Y	-0.289 ± 0.092
T58V	-0.055 ± 0.079
T58I	0.111 ± 0.09
T58R	0.3 ± 0.067
T58K	0.123 ± 0.1
T58H	0.046 ± 0.23
T58C	0.194 ± 0.16
T58D	0.138 ± 0.094
T58G	-0.006 ± 0.073
I59V	0.279 ± 0.12
I59S	-0.015 ± 0.21
I59R	-0.046 ± 0.22

Variant	abundance fitness
I59F	-0.122 ± 0.27
I59N	0.329 ± 0.27
I59L	-0.077 ± 0.14
I59K	0.424 ± 0.21
I59G	-0.218 ± 0.39
I59D	0.618 ± 0.42
I59H	-0.14 ± 0.19
I59A	0.001 ± 0.27
I59W	-0.414 ± 0.41
I59M	0.026 ± 0.21
Y52S	-0.235 ± 0.077
Y52I	-0.196 ± 0.13
Y52R	-0.227 ± 0.07
Y52E	-0.172 ± 0.092
Y52V	-0.151 ± 0.084
Y52T	-0.03 ± 0.12
Y52K	-0.181 ± 0.12
Y52N	-0.334 ± 0.42
Y52W	0.09 ± 0.045
Y52Q	-0.256 ± 0.14
Y52F	0.009 ± 0.094
Y52M	-0.598 ± 0.26
Y52H	-0.493 ± 0.17
Y52L	-0.032 ± 0.081
Y52G	-0.357 ± 0.099

Variant	abundance fitness
C54G	-1.15 ± 0.18
C54E	-0.781 ± 0.16
C54P	-0.821 ± 0.2
C54L	-1.19 ± 0.23
C54T	-0.65 ± 0.17
C54H	-0.245 ± 0.11
C54S	-0.723 ± 0.12
C54K	-0.571 ± 0.15
C54D	-0.999 ± 0.28
C54N	-0.811 ± 0.25
C54Q	-0.405 ± 0.21
C54I	-1 ± 0.24
C54M	-0.991 ± 0.25
C54V	-0.674 ± 0.097
C54Y	-1.24 ± 0.26
N56T	-0.01 ± 0.072
N56P	-0.121 ± 0.096
N56A	-0.037 ± 0.12
N56H	-0.048 ± 0.17
N56E	-0.007 ± 0.21
N56W	-0.002 ± 0.083
N56S	0.122 ± 0.071
N56G	0.064 ± 0.13
N56C	-0.014 ± 0.11
N56R	-0.126 ± 0.11

Variant	abundance fitness
N56Y	0.021 ± 0.14
N56K	-0.525 ± 0.27
N56M	-0.138 ± 0.14
N56Q	-0.155 ± 0.16
N56L	-0.22 ± 0.078
P55L	-0.011 ± 0.074
P55A	0.078 ± 0.066
P55M	-0.112 ± 0.091
P55G	-0.531 ± 0.23
P55N	-0.365 ± 0.2
P55C	-0.098 ± 0.092
P55F	-0.4 ± 0.16
P55T	0.083 ± 0.069
P55K	0.265 ± 0.082
P55I	-0.156 ± 0.096
P55R	0.019 ± 0.059
P55Q	0.109 ± 0.15
P55Y	-0.245 ± 0.16
P55H	-0.04 ± 0.11
P55E	-0.116 ± 0.16
P55D	-0.66 ± 0.38

Variants of: B2
Test: as above
Settings: Homo sapiens

Variant	abundance fitness
R7S	-0.084 ± 0.053
R7M	0.073 ± 0.086
R7E	0.236 ± 0.054
S23V	-0.35 ± 0.067
S23I	-0.579 ± 0.14
S23C	-0.444 ± 0.15
S23E	0.186 ± 0.1
S23F	-0.272 ± 0.16
S23H	-0.523 ± 0.2
S23L	-0.276 ± 0.094
S23T	-0.436 ± 0.14
N21R	-0.437 ± 0.12
N21S	-0.071 ± 0.098
K3P	-0.1 ± 0.11
K3W	-0.298 ± 0.081
N45E	-0.266 ± 0.086
N45M	-0.386 ± 0.1
N45S	-0.42 ± 0.076
N45R	-0.062 ± 0.055
N45H	-0.123 ± 0.11
N45C	-0.39 ± 0.092
N45D	-0.261 ± 0.2
R49M	-0.489 ± 0.11
R49T	-0.213 ± 0.06

Variant	abundance fitness
R49G	-0.357 ± 0.055
P22G	0.087 ± 0.068
P22D	0.307 ± 0.14
P22A	-0.109 ± 0.071
P22K	-0.833 ± 0.29
K25W	-0.519 ± 0.11
P20R	-1.02 ± 0.14
P20L	-0.411 ± 0.071
P20Q	-0.796 ± 0.35
P20Y	-0.559 ± 0.37
P20T	-0.927 ± 0.44
D17T	-0.914 ± 0.07
D17Y	-0.97 ± 0.09
H8C	-0.032 ± 0.073
Q38S	-0.841 ± 0.12
Q38L	-0.826 ± 0.069
Q38A	-0.269 ± 0.07
Q38N	-0.467 ± 0.16
P18K	-0.42 ± 0.1
P18V	-0.822 ± 0.092
P18M	-0.334 ± 0.067
P18D	-0.734 ± 0.11
L28Q	-0.88 ± 0.26
A29I	-0.727 ± 0.28

Variant	abundance fitness
A29N	-1.03 ± 0.29
A29R	-0.982 ± 0.11
A29Q	-0.527 ± 0.095
A29F	-1.07 ± 0.38
N41P	-1 ± 0.26
N41H	-0.392 ± 0.17
N41Q	-0.124 ± 0.078
N41E	-0.121 ± 0.057
N41A	-0.511 ± 0.061
N41V	-0.269 ± 0.069
N41I	-0.642 ± 0.18
D50K	-0.474 ± 0.18
D50E	-0.26 ± 0.14
D50F	-0.585 ± 0.19
D50Y	-0.878 ± 0.2
D50H	-0.605 ± 0.22
D50S	-0.312 ± 0.12
D50A	-0.383 ± 0.063
K44I	-0.37 ± 0.11
K44E	-0.009 ± 0.052
R11M	-0.019 ± 0.1
R11N	0.27 ± 0.11
R11E	0.125 ± 0.043
R11S	-0.077 ± 0.058

Variant	abundance fitness
R11Q	0.268 ± 0.078
R5I	-0.172 ± 0.21
R5E	0.068 ± 0.099
R5W	-0.558 ± 0.16
R5N	-0.075 ± 0.13
R5Q	-0.74 ± 0.16
G33T	-0.727 ± 0.1
G33F	-0.946 ± 0.14
G33W	-0.853 ± 0.065
T32P	-0.783 ± 0.17
T32V	-0.294 ± 0.076
T32F	-0.947 ± 0.15
G40R	0.127 ± 0.054
G40Q	-0.245 ± 0.052
G40K	0.335 ± 0.11
G40C	-0.279 ± 0.092
R47H	-0.762 ± 0.12
R47W	-0.425 ± 0.088
R47T	-0.825 ± 0.12
R47I	-1.01 ± 0.39
R47A	-0.635 ± 0.062
Q48L	-0.522 ± 0.11
Q48Y	0.226 ± 0.087
Q48M	-0.169 ± 0.15

Variant	abundance fitness
Q48V	-0.315 ± 0.071
Q48K	0.266 ± 0.14
Q48C	-0.125 ± 0.12
Q48N	0.04 ± 0.15
Q48S	-0.092 ± 0.078
Y14S	-0.888 ± 0.099
Y14C	-0.994 ± 0.13
C1S	0.116 ± 0.18
W42G	-0.851 ± 0.1
W42L	-0.743 ± 0.14
W42T	-0.581 ± 0.14
W42M	-0.881 ± 0.091
W42S	-0.898 ± 0.075
W42V	-0.931 ± 0.18
P36W	-0.328 ± 0.047
P36T	-0.125 ± 0.059
P36I	-0.107 ± 0.083
A31D	-0.888 ± 0.32
F43W	-0.926 ± 0.17
F43S	-0.872 ± 0.12
F43E	-0.821 ± 0.11
L10G	-0.983 ± 0.13
L10C	-0.608 ± 0.16
L10E	-0.741 ± 0.1

Variant	abundance fitness
T37H	-0.049 ± 0.13
T37F	-0.28 ± 0.12
T37V	-0.076 ± 0.081
T37S	-0.043 ± 0.043
T37G	-0.133 ± 0.05
L15Y	-0.185 ± 0.26
L15K	0.003 ± 0.064
L15E	-0.067 ± 0.087
L15Q	-0.025 ± 0.066
L15P	-0.922 ± 0.19
K24A	-0.009 ± 0.063
K24E	-0.188 ± 0.051
K24I	-0.051 ± 0.091
R26N	0.069 ± 0.068
R26H	-0.121 ± 0.068
R26L	0.039 ± 0.069
R26C	0.055 ± 0.25
R26F	-0.085 ± 0.062
R26S	-0.182 ± 0.11
L9A	-0.387 ± 0.093
L9D	-0.739 ± 0.18
L9F	-0.213 ± 0.14
L9Q	-0.35 ± 0.088
L9T	-0.138 ± 0.071

Variant	abundance fitness
L9P	-0.645 ± 0.061
R51D	-0.25 ± 0.047
R51C	-0.691 ± 0.45
R51M	-0.499 ± 0.42
R51K	-0.133 ± 0.33
E4R	-0.361 ± 0.079
E4K	-0.125 ± 0.14
E4M	-0.131 ± 0.15
E4F	-0.56 ± 0.24
E4Q	-0.277 ± 0.26
E4S	-0.276 ± 0.068
E4P	-0.741 ± 0.17
E4D	0.017 ± 0.075
Q30I	0.036 ± 0.11
Q30W	0.057 ± 0.069
Q30M	-0.006 ± 0.073
Q30G	-0.276 ± 0.065
Q30R	-0.365 ± 0.059
Q30Y	-0.381 ± 0.1
Q30N	-0.374 ± 0.17
Q30F	-0.239 ± 0.11
Y19W	0.052 ± 0.1
Y19L	-0.488 ± 0.088
Y19T	-0.088 ± 0.082

Variant	abundance fitness
Y19E	-0.41 ± 0.06
Y19V	-0.625 ± 0.094
Y19P	-0.673 ± 0.17
L34H	-0.896 ± 0.066
L34M	-0.044 ± 0.07
L34N	-0.826 ± 0.09
F2I	0.179 ± 0.14
F2W	-0.369 ± 0.046
F2G	-0.017 ± 0.051
F2S	0.256 ± 0.042
F2T	0.196 ± 0.081
R46S	-0.165 ± 0.055
R46W	-0.501 ± 0.099
W13V	-0.181 ± 0.05
W13H	-0.046 ± 0.12
W13Q	-0.021 ± 0.042
W13E	-0.067 ± 0.093
Q16W	-0.727 ± 0.38
Q16P	-0.782 ± 0.15
Q16F	-0.27 ± 0.31
Q16Y	-0.12 ± 0.32
Q16S	-0.127 ± 0.056
T35R	-0.813 ± 0.066
T35H	-0.749 ± 0.083

Variant	abundance fitness
T35C	-0.979 ± 0.18
T35Q	-0.809 ± 0.12
T35W	-0.822 ± 0.056
T35I	-0.885 ± 0.1
T35E	-0.399 ± 0.072
V39P	-0.999 ± 0.2
V39T	-0.99 ± 0.13
V39I	-0.096 ± 0.087
V39A	-0.9 ± 0.15
V39K	-0.556 ± 0.13
E12K	-0.504 ± 0.14
E12T	-0.33 ± 0.1
E12G	-0.393 ± 0.05
E12Q	-0.365 ± 0.14
E12L	-0.458 ± 0.073
T6Q	-0.168 ± 0.058
T6F	-0.691 ± 0.16
T6S	-0.174 ± 0.057
E27G	-0.805 ± 0.1
E27V	-0.731 ± 0.12
E27T	-0.513 ± 0.12
